This note sets out measurements from patent US12077566B2, “Mutants of recombinant immunoregulatory protein of Ganoderma lucidum and applications thereof” (priority 2017, dated 2024).

B1: rLZ-8 (K16A/K41A): alanine mutant of rLZ-8 at K16 and K41 (protein)
chain: MSDTALIFRLAWDVKALSFDYTPNWGRGNPNNFIDTVTFPAVLTDKAYTYRVAVSGRNLGVKPSYAVESDGSQKVNFLEYNSGYGIADTNTIQVFVVDPDTNNDFIIAQWN
B2: rLZ-8 (S18A): alanine mutant of rLZ-8 at S18 (protein)
chain: B1 chain with A16K, S18A, A41K
B3: rLZ-8 (D70K): rLZ-8 mutant after surface potential optimization, D70K (protein)
chain: B1 chain with A16K, A41K, D70K
B4: rLZ-8 (D45A): alanine mutant of rLZ-8 at D45 (protein)
chain: B1 chain with A16K, A41K, D45A
B5: rLZ-8 (L17K/D70K): rLZ-8 mutant after surface potential optimization, L17K and D70K (protein)
chain: B1 chain with A16K, L17K, A41K, D70K
B6: mPEG-SPA-rLZ-8: rLZ-8 modified with methoxy polyethylene glycol succinimidyl propionate (conjugate, UniProt P14945 2-111, looked up)
Immunomodulatory protein Ling …: SDTALIFRLAWDVKKLSFDYTPNWGRGNPNNFIDTVTFPKVLTDKAYTYRVAVSGRNLGVKPSYAVESDGSQKVNFLEYNSGYGIADTNTIQVFVVDPDTNNDFIIAQWN
modifications: mPEG-SPA PEGylation
notes: rLZ-8 modified with methoxy polyethylene glycol succinimidyl propionate

Positions count from the first letter of the chain named. Names and notes keep the numbering of the source. “Also recorded” adds a separate entry of the source.

In the first data set the target is EGFR extracellular domain (Homo sapiens, UniProt P00533). As to the kind of experiment: Affinity test by surface plasmon resonance (Biacore T200, CM5 chip). The class given is binding. The note with it: EGFR extracellular domain coupled on CM5 chip, analyte 4-256 nM. The procedure: The Biacore™ T200 equipment (a Surface Plasmon Resonance from GE Company) is selected. Through the surface plasma resonance technology, the affinity of the rLZ-8 and the mutants thereof to the EGFR extracellular domain is tested. The CM5 chip is adopted to serve as the affinity test chip.
The EGFR extracellular domain (with an amino acid sequence of 25-645) serves as the ligand for coupling; 1 mg EGFR freeze-dried powders are diluted with HEPES buffer solution to a concentration of 400 μg/mL and set aside. Three 1.5 mL EP tubes are prepared; 10 μL ligand are respectively added into the three tubes, then 90 μL 10 mM sodium acetate with different pH values of 4.5, 5.0 and 5.5 are respectively added into the tubes and are mixed completely and uniformly; and a final concentration of the ligand is 40 μg/mL. Moreover, 200 μL 50 mM sodium acetate is added into another 1.5 mL EP tube.
The ligand has a molecular weight of 70 kDa, the analyte (rLZ-8) has a molecular weight of 12.4 kDa. In theory, one rLZ-8 […] can bind with one EGFR, and thus the stoichiometric ratio Sm is equal to 1. Through the following equations, the coupling amount RL of the ligand is calculated.
Through the experimental experience, the optimal reagent coupling amount is set to be 3*RL, and the coupling amount is set to be 1700 RU. The EGFR extracellular domain is successively coupled on the CM5 chip.
In the affinity test, in order to eliminate the influence of different concentrations on the affinity, every of the rLZ-8 and the mutants thereof are tested with eight concentrations, wherein: seven concentrations are gradient concentrations, and the last one is the test reference concentration.
As to B1, the “Dissociation rate constant (koff)” value turned out to be 0.000273 s⁻¹ and the Ka amounted to 220 M⁻¹ s⁻¹.
B2 registered a Ka of 3720 M⁻¹ s⁻¹.
Consider B3, for which the Ka amounted to 203000 M⁻¹ s⁻¹.
Same read-out and setting: to B4 belongs 1200 M⁻¹ s⁻¹; to B5, 215000 M⁻¹ s⁻¹.

Still in this data set, the particulars now being: compared with rLZ-8.
Regarding B1, the “Affinity with the EGFR (in words)” value is given as “obviously decreased by 2-3 orders of magnitudes”.
On to B2, for which the “Affinity with the EGFR (in words)” value is reported as “obviously decreased by 2-3 orders of magnitudes; also recorded: obviously decreased affinity”.
On the same count and under the same terms, to B4 belongs “obviously decreased by 2-3 orders of magnitudes; also recorded: obviously decreased affinity”.

Still in this data set, the particulars now being: compared with rLZ-8; listed as rLZ-8 (K16A/K41 A).
Consider B1, for which the “Affinity with the EGFR (in words)” value is reported as “obviously decreased affinity”.

The next data set has as its system human liver cancer Hep G2 cells.
Test: not given
The note with it: after administration for 28 days. The source says: Two weeks later, the model mice are divided into groups randomly, and each group has 10 mice. The administration method is caudal vein injection, once a day, for consecutive 28 days (qd×28, i.v.). […] During the experiment, if the mouse dies, the dead mouse is weighted on the same day, and the tumor tissue is taken out to be weighted. For the living mouse after administration for 28 days, the mouse is killed, and then the tumor tissue is taken out to be weighted. The death time and death number of the mice in each group are recorded in detail; the survival conditions of the mice of the experimental groups and the control groups are analyzed, and the survival rate is calculated, wherein the survival rate is obtained through subtracting the death number of the mice from the total number of the mice, and then dividing the difference by the total number of the mice.
As to B1, the “Tumor inhibitory effect (in words)” value is given as “nearly no tumor inhibitory effect”.
Same read-out and setting: to B2 belongs “nearly no tumor inhibitory effect”.
Regarding B3, the “Tumor inhibitory effect (in words)” value was “obviously increased tumor inhibitory effects”.
Still for that read-out and setting: to B4 belongs “nearly no tumor inhibitory effect”.
Take B5: the “Tumor inhibitory effect (in words)” value is reported as “obviously increased tumor inhibitory effects”.

Still in this data set, the particulars now being: mouse, in vivo.
In the case of B1, the “Mice weight after experiment” value is reported as 17.2 ± 1.3 g.
On the same count and under the same terms, to B2 belongs 17.6 ± 1.4 g.
B3: the “Effect on survival time of the mice (in words)” value is on record as “certain effect on lengthening the survival time” and the “Mice weight after experiment” value was 20.7 ± 1.7 g.
For B4, the “Mice weight after experiment” value is 17.4 ± 1.6 g.
Take B5: the “Effect on survival time of the mice (in words)” value is “certain effect on lengthening the survival time” and the “Mice weight after experiment” value was found to be 21.0 ± 1.8 g.

The data set is the same for the next values; noted with them: qd×28 i.v.; rLZ-8 and mutants 0.5 mg/kg, sorafenib 50 mg/kg.
Take B1: the “Mice tumor weight after experiment” value is reported as 1.46 ± 0.93 g.
For B2, the “Mice tumor weight after experiment” value is 1.50 ± 0.71 g.
The same measure, in the same setting: to B3 belongs 0.35 ± 0.21 g; to B4, 1.44 ± 0.80 g.
On the same count and under the same terms, to B5 belongs 0.42 ± 0.23 g.

Still in this data set, the particulars now being: qd×28 i.v.; rLZ-8 and mutants 0.5 mg/kg, sorafenib 50 mg/kg; 10 mice per group.
For the molecule B1, the “Survival rate of mice after experiment” value is given as 20%.
For B2, the “Survival rate of mice after experiment” value came to 30%.
For the molecule B3, the “Survival rate of mice after experiment” value worked out at 80%.
Consider B4, for which the “Survival rate of mice after experiment” value worked out at 50%.
Turning to B5, the “Survival rate of mice after experiment” value is reported as 90%.

A further data set has as its system human breast cancer MCF7 cells. The experiment in a line: Orthotopic transplantation tumor model of human breast cancer MCF7 cells. The class given is in vivo, BALB/c nude mice. Particulars: after administration for 28 days. The procedure: One day before the experiment, 0.5 mg of 17ß estradiol sustained release tablet is embedded below the neck skin of the BALB/c nude mice.
On to B1, for which the “Mice tumor weight after experiment” value came to 1.12 ± 0.37 g and the “Tumor inhibitory effect (in words)” value is on record as “nearly no tumor inhibitory effect”.
On the same counts, the results for B2 are 1.04 ± 0.30 g and “nearly no tumor inhibitory effect”.
As for B3, the “Mice tumor weight after experiment” value was 0.52 ± 0.28 g and the “Tumor inhibitory effect (in words)” value is “obviously increased tumor inhibitory effect”.
B4: the “Mice tumor weight after experiment” value is given as 1.08 ± 0.28 g and the “Tumor inhibitory effect (in words)” value is “nearly no tumor inhibitory effect”.
On to B5, for which the “Mice tumor weight after experiment” value stood at 0.49 ± 0.26 g and the “Tumor inhibitory effect (in words)” value is given as “obviously increased tumor inhibitory effect”.

A further data set has as its system human colon cancer SW480 cells. The experiment in a line: Transplantation tumor model of human colon cancer SW480 cells. The class given is in vivo, BALB/c nude mice. Particulars: after administration for 28 days.
B1: the “Mice tumor weight after experiment” value is listed as 3.12 ± 0.47 g and the “Tumor inhibitory effect (in words)” value was “nearly no tumor inhibitory effect”.
On the same counts, the results for B2 are 3.01 ± 0.39 g and “nearly no tumor inhibitory effect”.
For the molecule B3, the “Mice tumor weight after experiment” value was 1.22 ± 0.29 g and the “Tumor inhibitory effect (in words)” value is “obviously increased tumor inhibitory effect”.
On the same counts, the results for B4 are 3.26 ± 0.56 g and “nearly no tumor inhibitory effect”.
Take B5: the “Mice tumor weight after experiment” value worked out at 1.09 ± 0.33 g and the “Tumor inhibitory effect (in words)” value was “obviously increased tumor inhibitory effect”.

For another data set, the system named is liver cancer, lung cancer, breast cancer and colon cancer. The experiment in a line: Animal pharmacodynamic experiments of liver, lung, breast and colon cancer (summary statement). The format is in vivo, mice. Particulars: breast and colon cancer models together.
As to B1, the “Tumor inhibitory effect (in words)” value was “nearly no tumor inhibitory effect”.
With B2, the “Tumor inhibitory effect (in words)” value is listed as “nearly no tumor inhibitory effect”.
On the same count and under the same terms, to B3 belongs “obviously increased tumor inhibitory effects”; to B4, “nearly no tumor inhibitory effect”.
Still for that read-out and setting: to B5 belongs “obviously increased tumor inhibitory effects”.

A further data set concerns tumor. The experiment in a line: Early animal pharmacodynamic experiments of PEG-modified rLZ-8. The note with it: compared with rLZ-8. The format is in vivo.
Regarding B6, the “Antitumor effect (in words)” value is “decreased”.

Another data set relates to human lung cancer A549 cells. As to the kind of experiment: Orthotopic transplantation tumor model of human lung cancer A549 cells.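 Further: test animals were NOG mice aged 6-8 weeks.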 The note with it: after administration for 28 days.
Experimental: The human lung cancer A549 cell strain is selected. The NOG Mice of 6-8 weeks old are selected.
The DMEM containing 10% fetal bovine serum is selected for the human lung cancer A549 cells, and then is placed in the CO2 constant-temperature incubator at 37° C. for culturing. The A549 cells at the logarithmic phase are digested by pancreatin and thereafter washed with serum-free DMEM; the living cell concentration is adjusted to 1×10^8 cells per milliliter; 20 μL cell suspension is taken and inoculated at the lung of the NOG mice; two weeks later, the orthotopic transplantation tumor model of A549 lung cancer cells is constructed in the NOG mice.
For B1, the “Mice survival rate after experiment” value is listed as 20%, the “Mice tumor weight after experiment” value is 1.26 ± 0.77 g, the “Mice weight after experiment” value is 17.4 ± 1.5 g and the “Tumor inhibitory effect (in words)” value was “nearly no tumor inhibitory effect”.
Turning to B2, the “Mice survival rate after experiment” value is recorded as 30%, the “Mice tumor weight after experiment” value is recorded as 1.20 ± 0.70 g, the “Mice weight after experiment” value amounted to 17.8 ± 1.6 g and the “Tumor inhibitory effect (in words)” value is recorded as “nearly no tumor inhibitory effect”.
Regarding B3, the “Mice survival rate after experiment” value was determined as 80%, the “Mice tumor weight after experiment” value is listed as 0.36 ± 0.28 g, the “Mice weight after experiment” value is 21.1 ± 1.2 g and the “Tumor inhibitory effect (in words)” value is recorded as “obviously increased tumor inhibitory effect”.
In the case of B4, the “Mice survival rate after experiment” value came out at 30%, the “Mice tumor weight after experiment” value is recorded as 1.28 ± 0.68 g, the “Mice weight after experiment” value worked out at 17.5 ± 1.5 g and the “Tumor inhibitory effect (in words)” value is “nearly no tumor inhibitory effect”.
On the same counts, the results for B5 are 80%, 0.40 ± 0.26 g, 21.2 ± 1.5 g and “obviously increased tumor inhibitory effect”.

The data set is the same for the next values; noted with them: compared with the rLZ-8.
For B3, the “Effect on survival time (in words)” value is “can obviously lengthen the survival time”.
On the same count and under the same terms, the entry for B5 is “can obviously lengthen the survival time”.
